{"source": "patent US20080254496A1", "about": "“Methods for Detection of Fungal Disease” (priority 2005, published 2008)", "assay": "D-arabinitol oxidase enzyme activity assay (H2O2 formation coupled to horse radish peroxidase/TMB, absorbance at 650 nm)", "format": "biochemical", "details": "ratio of oxidase activity with sorbitol as substrate to DA as substrate; protein extracts from E. coli, 10 mM sugar alcohol, pH 6.5, 23° C.", "method": "The D-arabinitol oxidase enzyme activity is assayed by the formation of H2O2 during the enzyme reaction (FIG. 1) as coupled with a peroxidase indicator reaction that catalyzes the oxidation of 3,3′,5,5′-tetramethylbenzidine hydrochloride (TMB), producing a colored product. An increase in absorbance is a direct measure of D-arabinitol oxidase activity. Enzyme activity is assayed in crude extracts and in purified protein preparations. […] In this reaction, formation of H2O2 results in the formation of blue color measurable by reading the absorbance at 650 nanometers (nm). Absorbance at 650 nm is followed kinetically using a Tecan Rainbow spectrophotometer at room temperature (23° C.). Milli-absorbance units per minute (mA/min) are calculated as the increase in absorbance at 650 nm/minute×1000. It is recognized that researchers skilled in the art may perform the assay as an end-point assay, by stopping reactions at various times with a solution of acid to produce a yellow color, and reading the absorbance at 450 nm. […]\nDNA sequences encoding an SaOx protein (SEQ ID NO:3) are used as starting material for error prone PCR. Error-prone PCR is accomplished by performing PCR from DNA templates using a non-proof reading DNA polymerase such as Taq Polymerase, or by using a GeneMorph II Random Mutagenesis Kit (Stratagene). […]"}
{"molecule": "SaOX (wild type + His-tag): Streptomyces avermitilis oxidase (SEQ ID NO:4), wild type with C-terminal His-tag (STOP423LEHHHHHH) (protein, listed as Streptomyces avermitilis, C-terminal LEHHHHHH His-tag) MTDAGTALTNWAGNITYSAKELHRPQSLDALRALVADSAKVRVLGSGHSFNEIAEPGADGVLLSLTALPPSVEVDTAARTVRVAGGVRYAELARVVHGHGLALPNMASLPHISVAGSVATGTHGSGVTNGSLASAVREVELVTADGSAVRIGRGDDRFDGAVTALGALGVVTALTLDLEPDYRVAQQVFTELPLAGLDFDAVAASAYSVSLFTGWRTSGFAQVWLKRRTDRPSADFPWAAPATEAMHPVPGMPAVNCTQQFGVPGPWHERLPHFRAEFTPSSGAELQSEYLLPRPYALDALHALDAVRETVAPVLQICEVRTVAADAQWLSPAYGRDTVALHFTWVEDLAAVLPVVRRVEEALDPFDPRPHWGKVFAVPARVLRGRYPRLGDFRALVDSLDPGGKFTNAFVREVLGSGDRPS", "values": [{"measurement": "Sorb/DA", "value": 14.8}]}
